Experimental data reported in patent US20210340276A1 (Astellas, published 2021).
Read-outs that look alike come from different tables or passages of the source.

What was measured:
Assay in all cases: ELISA, MUC1 peptide immobilized on 384-well plate, HRP anti-human Igκ detection, luminescence
[1] = target: T1, Human cancer-specific MUC1 peptide (PTL 1) (human)
T1 construct: Immobilized at 0.5 µmol/L per well on a 384-well ELISA plate
Method: (§1) Human cancer-specific MUC1 peptide (PTL 1) was immobilized at 0.5 μmol/L per well onto a 384-well ELISA plate. The resultant was reacted with each anti-human MUC1 antibody Fab fragment conjugate described above (sample No. 5, 6, 7, or 3) and then reacted with a horseradish peroxidase-labeled goat anti-human Igκ antibody (Southern Biotechnology Associates, Inc.) as a secondary antibody. ECL Prime Western Blotting Detection Reagent (GE Healthcare Japan Corp.) was added thereto for luminescence, and the degree of the luminescence was examined.
(§2) Likewise, binding activity evaluation was also conducted as to the anti-human MUC1 antibody Fab fragment conjugates given below.

[2] = target: T1, Human cancer-specific MUC1 peptide (PTL …); remark: listed apart in the source
Method: as §1

[3] = target: T1, Human cancer-specific MUC1 peptide (PTL …); remark: listed apart in the source
Method: as §1, §2

B1: P10-2 Fab (Fab, V domains shown)
VH: QVQLVQSGAEVKKPGASVKVSCKASGYTFTNYGLSWVRQAPGQGLEWMGENHPGSGIIYHNEKFRGRVTLTADRSTSTAYMELSSLRSEDTAVYYCARSSGTRGFDYWGQGTLVTVSS
VL: DVVMTQTPLSLSVTPGQPASISCRSSQSIVHSNGNTYLEWYLQKPGQSPQLLIYRVSNRFSGVPDRFSGSGSGTDFTLKISRVEAEDVGVYYCFQGSHGPWTFGQGTKLEIKR
modifications: heavy chain N-terminal glutamine modified into pyroglutamic acid in a great majority of purified antibodies (Example 2)
notes: expressed in Expi293F cells, purified with KappaSelect; also called anti-human MUC1 antibody Fab fragment P10-2
EC50 [1]: 0.16 nM | EC50 [2]: 0.23 nM | EC50 [3]: 0.17 nM
